Assay results from paper PMC7002343.

Test system: EspM (lysate) (Mycobacterium marinum M (ATCC BAA-535))
Experiment: DNA pull-down, LC-MS/MS
Conditions: 5' BiotinTEG on both primers; EspM EMSA: 10 mM Tris-HCl pH 8.0, 40 mM KCl, 2.5 mM DTT, 0.25% Tween-20, 0.02 mg/mL salmon sperm DNA (listed as 0.5x binding buffer), ~70 ng probe, 20-25 min …

Substance: whiB6 promoter bait (1 kb)
- binding signal (fold enrichment over rpoA bait (N5)): > 64
